Data taken from US20120219564 (published 2012).

B1: 2SD4 scFv (antibody, V domains shown)
VH: QVQLVESGGGLVQPGRSLRLSCAASGFTFDDYAMHWVRQAPGKGLDWVSAITWNSGHIDYADSVEGRFAVSRDNAKNALYLQMNSLRPEDTAVYYCTKASYLSTSSSLDNWGQGTLVTVSS
VL: DIQMTQSPSSLSASIGDRVTITCRASQGIRNYLAWYQQKPGKAPKLLIYAASTLQSGVPSRFSGSGSGTDFTLTISSLQPEDVATYYCQKYNSAPYAFGQGTKVEIK
B2: 2SD4 IgG4 (antibody, V domains shown)
VH: B1 VH
VL: B1 VL

Columns and labels:
human TNFα [1] = target: T1, human TNFα (human, UniProt P01375); assay: SPR
human TNFα [2] = target: T1, human TNFα; assay: SPR; remark: listed apart in the source
human TNFα [3] = target: T1, human TNFα; assay: other, equilibrium analysis

T1 sequence (P01375 77-233): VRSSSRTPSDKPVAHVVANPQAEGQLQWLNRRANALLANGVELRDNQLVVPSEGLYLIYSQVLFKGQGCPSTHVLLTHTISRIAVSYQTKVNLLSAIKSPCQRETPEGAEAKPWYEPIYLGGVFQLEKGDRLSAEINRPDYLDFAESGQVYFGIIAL

| Binder | koff (human TNFα [1]) [s⁻¹] | Kd (human TNFα [2]) [nM] | Kd (human TNFα [3]) [nM] |
| --- | --- | --- | --- |
| B1 | 0.0137 |  |  |
| B2 |  | 20 | 0.48 |
